Target: C144 (human)
Experiment: BLI

Work on “SARS-CoV-2 receptor binding domain (RBD) (from UniProt P0DTC2 319-539) (domain or fragment)” yielded a Kd of 149 nM.

From paper PMC8277577
